Measurements from publication PMC5357137.

Columns and labels:
[1] = test system: MuA transposase in cleaved-donor complex (CDC, WT transpososome) (bacteriophage Mu); experiment: fluorescence anisotropy; conditions: Mg2+, CDC with 3'ddA Mu ends, Anisotropy: purified CDCs diluted in reaction buffer with MgCl2 (+/- DMSO; concentrations, salt and pH not in material), 6 nM Atto565 target DNA, 1 h, room …
[2] = test system: MuA delta domain III (catalytic subunits of delta domain III CDC);SinMu chimera (non-catalytic subunits) (bacteriophage Mu;bacteriophage Mu; Sin recombinase (organism not stated)); experiment: fluorescence anisotropy; conditions: Mg2+, DMSO; CDC with 3'ddA Mu ends; single G:G mismatch at center; Anisotropy: purified CDCs diluted in reaction buffer with MgCl2 (+/- DMSO; concentrations, salt and pH not in material), 6 nM Atto565 target DNA, 1 h, room …

Substance | Kd ([1]; DMSO, Hill coefficient 2.6, single G:G mismatch at center) | Kd ([1]; no DMSO, Hill coefficient 3.3, single G:G mismatch at center) | Kd [2] | Kd ([1]; DMSO)
target DNA with central G:G mismatch, 35 bp | 15 nM | 15 nM | 38 nM | 
target DNA, fully base paired, 35 bp |  |  |  | 29 nM
